Test results taken from patent US6822073B2, “Modular peptide-based reagent” (Kimberly-Clark Worldwide, Inc., priority 2001, dated 2004).
Blank lines part the entries; values can stand above or below the sequence they belong to.

What was measured:
[1] = Chemical denaturation: unfolding in urea by intrinsic tryptophan fluorescence; assay type: physicochemical; conditions: for m1/2 value of unfolding: 20 μM protein; for m1/2 value of unfolding / Native free energy (ΔG in absence of denaturant): room temperature; for Native free energy (ΔG in absence of denaturant): extrapolated to zero urea
Procedure: Stability measurements of the protein were performed by measuring protein unfolding in the presence of urea via intrinsic tryptophan fluorescence (Lakowicz, 1983) in a Shimadzu RF5301 fluorometer. The excitation and emission wavelengths were 295 nm and 340 nm respectively. Both excitation and emission monochrometer slits were set at 1.5 nm. Protein (20 μM) was mixed with increasing amounts of urea (in the concentration range of zero to 6.8 M), and the samples were incubated at room temperature for ten hours to ensure that unfolding equilibrium had been achieved. Relative fluorescence was converted into free energy values according to the relation (Pace et al., 1989): [formula]
where yf and yu are the relative fluorescence values for fully folded and fully unfolded DST respectively, yi is the relative fluorescence of the unfolding intermediates, T is the absolute temperature, and R is the gas constant. Linear regression and extrapolation of the relationship ΔG versus [urea] was employed to determine the free energy value in the absence of denaturant (ΔGH2O). Similarly, the fraction unfolded protein (Fu) was calculated from the fluorescence data according to the relation (Pace et al., 1989): [formula]

[2] = molecular target: T1, bovine pancreatic trypsin (Bos taurus, UniProt P00760); assay: Isothermal titration calorimetry (ITC) of binding to bovine pancreatic trypsin; conditions: for Binding to trypsin by ITC (in words): all experimental conditions, FIGS. 6 and 7; for Stoichiometry / Ka (association constant) / ΔH / ΔS: ITC
T1 sequence (P00760 24-246): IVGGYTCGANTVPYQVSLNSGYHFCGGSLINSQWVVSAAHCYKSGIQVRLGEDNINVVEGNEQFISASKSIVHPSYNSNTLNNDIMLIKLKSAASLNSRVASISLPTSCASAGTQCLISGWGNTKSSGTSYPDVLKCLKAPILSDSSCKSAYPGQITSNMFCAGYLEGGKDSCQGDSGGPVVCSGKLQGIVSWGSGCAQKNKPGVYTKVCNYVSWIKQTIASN
Procedure: Isothermal titration calorimetry (ITC) was performed with a VP-ITC instrument from MicroCal, inc. Titrations were carried out by injecting 5 μL of an inhibitor solution (at concentration ranges from 0.5 mM to 2.0 mM) into the 1.4 mL stirred reaction cell. APP and APP derivatives ranged in concentration from 50 to 80 μM in the cell. […] Titrations were conducted between 20° C. and 40° C. Typical experimental conditions for the titrations were a 10 second injection period followed by a 240 second delay between injections for a total of 40 injections. Blank titrations of inhibitor into buffer were performed in order to correct for heats of dilution and mixing.
The independent set of multiple binding sites is the most common model for binding experiment evaluations. The analytical solution for the total heat is determined by (Freire et al., 1990): [formula]
where Q is the total heat, V is the cell volume, ΔH is the enthalpy, M is the macromolecule concentration (the binding partner in the cell), n is the binding stoichiometry, L is the ligand concentration (the binding partner in the syringe), and K is the association constant. Data were fit to this model using Origin version 5 (MicroCal, Inc.).
The association constant is related to the van't Hoff enthalpy according to the following relationship: [formula]
The free energy of binding is related to the binding enthalpy by:
or with the incorporation of heat capacity data according to the Gibbs-Helmholtz equation: [formula]
where ΔG is the Gibbs free energy of binding, T0 is the reference temperature, and ΔCp is the heat capacity. The value of ΔCp is calculated from determining the calorimetric enthalpy at two different temperatures: [formula]
By measuring the apparent enthalpy of binding in two different buffers of known enthalpy of ionization, it is possible to measure the net number of protons transferred during the binding events:
where ΔHcor is the actual heat of binding at the pH measured. The sign indicates the direction of proton transfer.

[3] = molecular target: T1, bovine pancreatic trypsin; assay: Surface plasmon resonance (BiaCore-X), trypsin flowed over immobilized peptide; assay type: binding; conditions: peptide coupled to CM-5 chip by thiol, trypsin 1 to 100 nM in PBS, FIG. 12
Procedure: The BiaCore, Inc. BiaCore-X surface plasmon resonance (SPR) device was utilized to measure the interaction between bovine pancreatic trypsin and SAP-1 or SAP-2. For these experiments a carboxymethyl dextran sensor chip (CM-5) was activated with 50 mM N-hydroxysuccinimide, 0.2 M N-ethyl-N′-(dimethylaminopropyl)-carbodiimide at a flow rate of 10 μL per minute for ten minutes. The thiol coupling agent PDEA (2-(2-pyridinyldithio)ethaneamine hydrochloride) at a concentration of 80 mM was passed over the activated surface at a flow rate of 10 μL per minute for five minutes. SAP-1 or SAP-2 at a concentration of 50 ng/μL was coupled to the activated surface at a flow rate of 10 μL per minute for ten minutes. The final surface was inactivated by flowing 50 mM 1-cysteine, 1 M NaCl at a rate of 10 μL per minute for five minutes over the sensor surface. Buffer was switched to phosphate buffered saline (PBS) and bovine pancreatic trypsin was flowed over the sensor surface at a rate of 20 μL per minute, and at concentrations that ranged from 1 to 100 nM.
For this reaction of the type, A+B⇄AB, where A is the free flowing ligand and B is the immobilized ligand, the change in the SPR signal (R) is proportional to formation (for the association phase) or to the dissociation (for the dissociation phase) of the complex AB.
for the association phase. Rmax is the measured response if all of the binding sites in the bound species were occupied, c is the ligand concentration, and Rb is the shift in the baseline signal upon ligand injection. The dissociation phase is evaluated by:
where R0 is the SPR signal at the start of dissociation. A FFT routine separately smoothed the association and dissociation portions of the binding isotherm. Final kinetic analysis (O'Shannessy et al., 1993) was performed using Origin from Microcal, Inc.

Binding to trypsin by ITC (in words) [2]: no detectable binding
Binding to trypsin by ITC (in words), FIG. 6 titration ([2]; peptide 2 mM, trypsin 20 μM, 20 mM cacodylate pH 7.0, 20 mM NaCl, 30° C.): No binding is evident
Sequence: CPSQPTYPGDPGPVEDLIRFYDNLQQWLNCVTAAC [SAP]
m1/2 value of unfolding [1]: 2.5 M urea
Dimerization seen in the unfolding curve (in words) ([1]; FIG. 9): no dimerization phenomenon
Native free energy (ΔG in absence of denaturant) [1]: -3.1 kcal/mol

Kinetic rate constant ka (association) [3]: 8.2×10^4
Kinetic rate constant kd (dissociation) [3]: 6.9×10^−2
Stoichiometry ([2]; 25° C., 20 mM cacodylate pH 7.0, FIG. 8): 0.995 +/− 0.06
Ka (association constant) ([2]; 25° C., FIG. 8): 640000 ± 5300 M⁻¹
ΔH ([2]; 25° C., FIG. 8): -31.2 ± 2.30 kcal/mol
ΔS ([2]; 25° C., FIG. 8): −16.2 +/− 1.22 cal mol^−1 K^−1
Binding affinity compared with the peptide having SEQ ID NO:21 (in words) ([2]; bovine pancreatic trypsin): slightly lower binding affinity
Sequence: CPSQPTYPGDPYKLKY GPVEDLIRFYDNLQQWLNCVTAAC (CPSQPTYPGDPYKLKYGPVEDLIRFYDNLQQWLNCVTAAC; A peptide-based reagent that combines the SEQ ID NO18 interactive domain with the SEQ ID NO11 peptide backbone.) [SAP-2, SAP backbone with library program-selected YKLKY insert]
Stabilization of the native state relative to SAP [1]: 2.1 kcal/mol
Stabilization of the native state relative to SAP-1 [1]: 0.1 kcal/mol
m1/2 value of unfolding [1]: 4.05 M urea

Kinetic rate constant ka (association) [3]: 1.3×10^5
Kinetic rate constant kd (dissociation) [3]: 1.7×10^−2
Stoichiometry ([2]; 293 K (20° C.), 20 mM cacodylate pH 7.0, 20 mM NaCl, FIG. 7): 0.975 +/− 0.02
Ka (association constant) ([2]; 293 K, FIG. 7): 1.65e+06 ± 45000 M⁻¹
ΔH ([2]; 293 K, FIG. 7): -26.1 ± 1.45 kcal/mol
ΔS ([2]; 293 K, FIG. 7): −11.6 +/− 2.2 cal mol^−1 K^−1
Ka (association constant) ([2]; 303 K): 2.4e+06 ± 37000 M⁻¹
ΔH ([2]; 303 K): -15.4 ± 2.05 kcal/mol
ΔS ([2]; 303 K): −21.1 +/− 1.8 cal mol^−1 K^−1
Stoichiometry ([2]; higher temperature, 303 K): 0.99 +/− 0.03
ΔCp (heat capacity of binding) ([2]; from calorimetric enthalpy at 293 K and 303 K): −0.51 kcal/mol K
Sequence: CPSQPTYPGDPPYRIRFGPVEDLIRFYDNLQQWLN CVTAAC (CPSQPTYPGDPPYRIRFGPVEDLIRFYDNLQQWLNCVTAAC; A peptide-based reagent that combines the SEQ ID NO15 interactive domain with the SEQ ID NO11 peptide backbone.) [SAP-1]
Stabilization of the native state relative to SAP [1]: 2.0 kcal/mol
m1/2 value of unfolding [1]: 4.0 M urea
Native free energy (ΔG in absence of denaturant) [1]: -5.1 kcal/mol
Binding to trypsin by ITC (in words) [2]: remarkable binding specificity for trypsin
